In paper PMC12217004, “Evolutionary regulation of human Fas ligand (CD95L) by plasmin in solid cancer immunotherapy” (Nature Communications, 2025):
Residue numbers refer to the chain shown, from its start. Names and notes keep the numbering of the source. One block for each molecule: values may come before it.

Columns and labels:
[1] = target: Rhesus monkey Fas ligand extracellular domain, shortest form (RhFasL^ST) (Rhesus monkey) (UniProt P63307); experiment: SEC; freshly purified FasL in PBS, 10 ug loaded on Superdex 200 10/300 GL, 1 ml/min, A280; trimer and monomer peaks
[2] = target: murine Fas ligand extracellular domain, shorter form, His-tagged (muFasL^S, 134-281) (mouse) (UniProt P41047); experiment: non-reducing gel with 60% lowered SDS, FasL immunoblot; his-tagged human and murine FasL forms added onto murine 4T1 cells (also human OVCAR3 cells) for 2 hr in serum-free media; supernatant precipitated and loaded without boiling on non-reducing gels
[3] = target: human Fas ligand extracellular domain, shortest form, His-tagged (HuFasL^ST, 146-281) (human) (UniProt P48023); experiment: SEC; freshly purified FasL in PBS, 10 ug loaded on Superdex 200 10/300 GL, 1 ml/min, A280; trimer and monomer peaks
[4] = target: murine Fas ligand extracellular domain, long form, His-tagged (muFasL^L, 103-281) (mouse) (UniProt P41047); experiment: non-reducing gel with 60% lowered SDS, FasL immunoblot; his-tagged human and murine FasL forms added onto murine 4T1 cells (also human OVCAR3 cells) for 2 hr in serum-free media; supernatant precipitated and loaded without boiling on non-reducing gels
[5] = target: the molecule itself; experiment: SEC; freshly purified FasL in PBS, 10 ug loaded on Superdex 200 10/300 GL, 1 ml/min, A280; trimer and monomer peaks
[6] = target: T1, human Fas ligand extracellular domain, shorter form, His-tagged (HuFasL^S, 134-281) (human), P48023; experiment: as above; conditions: remark: other sources report otherwise
T1 chain: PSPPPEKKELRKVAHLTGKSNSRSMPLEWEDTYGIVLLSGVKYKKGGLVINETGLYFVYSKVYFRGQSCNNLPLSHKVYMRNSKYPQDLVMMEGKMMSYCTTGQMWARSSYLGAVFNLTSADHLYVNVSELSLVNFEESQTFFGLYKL

stoichiometry N [1]: 3
Molecule: Rhesus monkey Fas ligand extracellular domain, shortest form (RhFasL^ST) (from UniProt P63307 146-280) (domain or fragment)

stoichiometry N [2]: 3
Molecule: murine Fas ligand extracellular domain, shorter form, His-tagged (muFasL^S, 134-281) (from UniProt P41047 134-279) (domain or fragment)

stoichiometry N [3]: 3
Molecule: human Fas ligand extracellular domain, shortest form, His-tagged (HuFasL^ST, 146-281) (from UniProt P48023 146-281) (domain or fragment)

stoichiometry N [4]: 3
Molecule: murine Fas ligand extracellular domain, long form, His-tagged (muFasL^L, 103-281) (from UniProt P41047 103-279) (domain or fragment)

B1: Rhesus monkey Fas ligand extracellular domain, shorter form (RhFasL^S, 134-281) (domain or fragment, UniProt P63307 134-280, looked up)
chain: SPPPEKKEQRKVAHLTGKPNSRSMPLEWEDTYGIVLLSGVKYKKGGLVINETGLYFVYSKVYFRGQSCTNLPLSHKVYMRNSKYPQDLVMMEGKMMSYCTTGQMWAHSSYLGAVFNLTSADHLYVNVSELSLVNFEESQTFFGLYKL
notes: Rhesus monkey Fas ligand (FasL), residues 134-281, carries P153; source: Freestyle CHO-S cells, transfected, purified from supernatant (his-TRAP)
stoichiometry N [5]: 3

B2: Rhesus monkey Fas ligand extracellular domain, long form, His-tagged (RhFasL^L, 103-281) (domain or fragment, UniProt P63307 103-280, looked up)
chain: LFHLQKELAELRESTSQKHTASSLEKQIGHPSPPPEKKEQRKVAHLTGKPNSRSMPLEWEDTYGIVLLSGVKYKKGGLVINETGLYFVYSKVYFRGQSCTNLPLSHKVYMRNSKYPQDLVMMEGKMMSYCTTGQMWAHSSYLGAVFNLTSADHLYVNVSELSLVNFEESQTFFGLYKL
notes: Rhesus monkey Fas ligand (FasL), entire extracellular domain, residues 103-281, carries P153; source: Freestyle CHO-S cells, transfected, purified from supernatant (his-TRAP); not shown: His tag, N-terminal, kept
stoichiometry N [5]: 3

B3: human Fas ligand extracellular domain, long form, His-tagged (HuFasL^L, 103-281) (domain or fragment, UniProt P48023 103-281, looked up)
chain: QLFHLQKELAELRESTSQMHTASSLEKQIGHPSPPPEKKELRKVAHLTGKSNSRSMPLEWEDTYGIVLLSGVKYKKGGLVINETGLYFVYSKVYFRGQSCNNLPLSHKVYMRNSKYPQDLVMMEGKMMSYCTTGQMWARSSYLGAVFNLTSADHLYVNVSELSLVNFEESQTFFGLYKL
notes: human Fas ligand (FasL, CD95L), entire extracellular domain, residues 103-281 (Q103-L281), carries S153; C-terminal His-tag versions were poorly expressed and not functional; N-terminal His-tag proteins were used; Mixture of trimer and monomer by SEC; also called Long^(L); huFasL^WT; source: Freestyle CHO-S cells, transfected, purified from supernatant (his-TRAP); not shown: His tag, N-terminal, …
stoichiometry N [5]: 3

B4: human Fas ligand extracellular domain, long form, S153P (HuFasL-S153P^L, 103-281) (domain or fragment, UniProt P48023 103-281, looked up)
chain: B3 chain with S51P
notes: human Fas ligand (FasL), residues 103-281 with S153P; The substitution was engineered here; source: Freestyle CHO-S cells, transfected, purified from supernatant (his-TRAP)
stoichiometry N [5]: 3

stoichiometry N [6]: 3
B5: human Fas ligand extracellular domain, shorter form, His-tagged (HuFasL^S, 134-281), P48023 134-281 (domain or fragment)
chain: T1 chain

B6: human Fas ligand extracellular domain, shorter form, S153P (HuFasL-S153P^S, 134-281) (domain or fragment, UniProt P48023 134-281, looked up)
chain: T1 chain with S20P
notes: human Fas ligand (FasL), residues 134-281 with S153P; The substitution was engineered here; source: Freestyle CHO-S cells, transfected, purified from supernatant (his-TRAP)
stoichiometry N [5]: 3
